Measured values reported in patent publication US20120107324A1.
One block for each substance: values may come before it.

What was measured:
[1] = target: β1 chain (integrin β1) (human) (UniProt P05556); assay: FACS on HT29 cells; Gt anti Mouse alone 2.52
[2] = target: Macaque β1 chain (Macaque); assay: FACS on macaque T-cells; Goat anti Mouse IgGFc Cy5 alone 2
αv integrin chain = αv integrin chain (UniProt P06756); assay: FACS on HT29 cells, positive control; Gt anti Mouse alone 2.52
[3] = target: Macaque αv chain (Macaque); assay: FACS on macaque T-cells; Goat anti Mouse IgGFc Cy5 alone 2
[4] = target: β1 chain (integrin β1) (human) (UniProt P05556); assay: FACS on HT29 cells, isotype control; Gt anti Mouse alone 2.52
[5] = target: human α5β1 integrin (human) (UniProt P08648); assay: FACS on human α5β1-transfected against untransfected 300.19 cells, 2.0 ug/mL
Chain of human α5β1 integrin (human) (P08648 42-1049, chain 1 of 2): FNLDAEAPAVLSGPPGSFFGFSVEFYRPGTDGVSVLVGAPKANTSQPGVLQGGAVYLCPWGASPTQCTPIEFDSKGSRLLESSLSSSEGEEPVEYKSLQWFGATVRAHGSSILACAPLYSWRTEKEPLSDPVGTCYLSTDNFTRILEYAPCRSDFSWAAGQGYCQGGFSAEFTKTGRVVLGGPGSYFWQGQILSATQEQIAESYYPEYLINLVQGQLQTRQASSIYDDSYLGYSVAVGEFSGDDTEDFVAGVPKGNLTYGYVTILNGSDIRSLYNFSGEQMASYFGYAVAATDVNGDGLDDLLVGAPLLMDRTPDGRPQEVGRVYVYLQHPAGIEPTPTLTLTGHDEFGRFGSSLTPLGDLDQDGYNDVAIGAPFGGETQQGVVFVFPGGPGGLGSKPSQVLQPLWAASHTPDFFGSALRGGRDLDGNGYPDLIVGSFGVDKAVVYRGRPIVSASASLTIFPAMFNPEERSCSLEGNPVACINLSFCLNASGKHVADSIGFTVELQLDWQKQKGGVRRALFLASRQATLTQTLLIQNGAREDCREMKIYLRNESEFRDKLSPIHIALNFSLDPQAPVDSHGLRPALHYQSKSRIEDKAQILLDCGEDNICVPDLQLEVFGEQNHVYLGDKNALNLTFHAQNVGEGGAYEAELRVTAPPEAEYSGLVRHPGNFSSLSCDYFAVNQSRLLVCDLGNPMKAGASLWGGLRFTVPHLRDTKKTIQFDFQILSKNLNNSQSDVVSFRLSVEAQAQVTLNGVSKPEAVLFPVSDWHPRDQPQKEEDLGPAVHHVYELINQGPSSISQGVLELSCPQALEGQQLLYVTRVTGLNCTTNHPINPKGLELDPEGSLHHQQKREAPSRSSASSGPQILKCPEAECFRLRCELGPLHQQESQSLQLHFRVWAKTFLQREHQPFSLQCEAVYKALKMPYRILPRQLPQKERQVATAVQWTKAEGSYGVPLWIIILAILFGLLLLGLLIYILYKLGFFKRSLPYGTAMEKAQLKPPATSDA
Chain of human α5β1 integrin (human) (P05556 21-798, chain 2 of 2, further chain): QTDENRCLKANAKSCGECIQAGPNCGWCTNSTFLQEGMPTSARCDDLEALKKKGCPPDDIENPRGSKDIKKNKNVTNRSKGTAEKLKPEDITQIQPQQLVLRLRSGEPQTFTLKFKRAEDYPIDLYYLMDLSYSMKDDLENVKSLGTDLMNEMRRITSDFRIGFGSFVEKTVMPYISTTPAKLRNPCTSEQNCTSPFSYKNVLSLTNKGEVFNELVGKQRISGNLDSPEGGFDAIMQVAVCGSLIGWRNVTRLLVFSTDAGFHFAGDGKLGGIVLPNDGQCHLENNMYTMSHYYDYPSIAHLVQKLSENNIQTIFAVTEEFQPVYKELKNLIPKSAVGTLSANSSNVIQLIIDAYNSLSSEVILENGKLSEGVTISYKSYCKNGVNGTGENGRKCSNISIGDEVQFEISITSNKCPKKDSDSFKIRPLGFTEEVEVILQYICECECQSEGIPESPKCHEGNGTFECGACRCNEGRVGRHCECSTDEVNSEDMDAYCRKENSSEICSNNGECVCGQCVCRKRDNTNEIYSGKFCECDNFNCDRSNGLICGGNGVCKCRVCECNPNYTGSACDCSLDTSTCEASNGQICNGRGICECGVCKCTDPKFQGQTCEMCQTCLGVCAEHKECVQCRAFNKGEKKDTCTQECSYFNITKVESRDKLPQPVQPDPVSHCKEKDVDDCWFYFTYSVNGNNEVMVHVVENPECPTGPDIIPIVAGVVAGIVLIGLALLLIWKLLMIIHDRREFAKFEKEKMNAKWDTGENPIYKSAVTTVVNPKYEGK

Macaque α5β1 (Macaque) [6] = assay: FACS on macaque T-cells, isotype control; Goat anti Mouse IgGFc Cy5 alone 2
[7] = target: human α5β1 integrin (human) (UniProt P08648); assay: FACS on human α5β1-transfected 300.19 cells, 2.0 ug/mL
[8] = target: β1 chain (integrin β1) (human) (UniProt P05556); assay: FACS on HT29 cells, isotype control; human secondary 2.8
αvβ6 integrin = αvβ6 integrin (UniProt P06756); assay: FACS on HT29 cells, positive control; Gt anti Mouse alone 2.52
Chain of αvβ6 integrin (P06756 31-1048, chain 1 of 2): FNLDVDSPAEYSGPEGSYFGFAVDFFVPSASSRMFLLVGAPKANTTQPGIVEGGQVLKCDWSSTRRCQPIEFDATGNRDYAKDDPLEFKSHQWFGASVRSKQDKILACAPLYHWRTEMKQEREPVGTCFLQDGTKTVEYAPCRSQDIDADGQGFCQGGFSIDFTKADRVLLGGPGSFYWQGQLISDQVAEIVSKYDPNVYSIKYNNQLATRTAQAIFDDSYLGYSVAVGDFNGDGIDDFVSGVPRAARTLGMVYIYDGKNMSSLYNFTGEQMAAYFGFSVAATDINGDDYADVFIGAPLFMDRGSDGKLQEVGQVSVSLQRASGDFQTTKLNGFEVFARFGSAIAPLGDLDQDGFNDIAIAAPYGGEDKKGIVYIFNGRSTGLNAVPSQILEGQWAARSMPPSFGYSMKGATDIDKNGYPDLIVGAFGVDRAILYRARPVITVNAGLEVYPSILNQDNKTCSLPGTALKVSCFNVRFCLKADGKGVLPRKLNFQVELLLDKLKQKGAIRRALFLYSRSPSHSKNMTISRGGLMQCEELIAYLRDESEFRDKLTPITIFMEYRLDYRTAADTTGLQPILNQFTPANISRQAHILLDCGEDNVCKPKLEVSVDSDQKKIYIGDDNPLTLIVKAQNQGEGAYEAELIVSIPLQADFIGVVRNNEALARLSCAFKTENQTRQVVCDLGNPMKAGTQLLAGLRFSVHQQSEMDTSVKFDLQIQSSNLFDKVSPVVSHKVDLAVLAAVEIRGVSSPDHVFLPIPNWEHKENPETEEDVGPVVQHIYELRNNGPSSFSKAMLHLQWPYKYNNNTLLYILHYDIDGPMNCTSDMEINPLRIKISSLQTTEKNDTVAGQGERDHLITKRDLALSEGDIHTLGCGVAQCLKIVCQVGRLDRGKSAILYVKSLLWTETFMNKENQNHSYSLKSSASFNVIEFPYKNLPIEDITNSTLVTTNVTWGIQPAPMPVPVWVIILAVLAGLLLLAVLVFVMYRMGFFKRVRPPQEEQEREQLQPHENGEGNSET
Chain of αvβ6 integrin (P18564 22-788, chain 2 of 2, further chain): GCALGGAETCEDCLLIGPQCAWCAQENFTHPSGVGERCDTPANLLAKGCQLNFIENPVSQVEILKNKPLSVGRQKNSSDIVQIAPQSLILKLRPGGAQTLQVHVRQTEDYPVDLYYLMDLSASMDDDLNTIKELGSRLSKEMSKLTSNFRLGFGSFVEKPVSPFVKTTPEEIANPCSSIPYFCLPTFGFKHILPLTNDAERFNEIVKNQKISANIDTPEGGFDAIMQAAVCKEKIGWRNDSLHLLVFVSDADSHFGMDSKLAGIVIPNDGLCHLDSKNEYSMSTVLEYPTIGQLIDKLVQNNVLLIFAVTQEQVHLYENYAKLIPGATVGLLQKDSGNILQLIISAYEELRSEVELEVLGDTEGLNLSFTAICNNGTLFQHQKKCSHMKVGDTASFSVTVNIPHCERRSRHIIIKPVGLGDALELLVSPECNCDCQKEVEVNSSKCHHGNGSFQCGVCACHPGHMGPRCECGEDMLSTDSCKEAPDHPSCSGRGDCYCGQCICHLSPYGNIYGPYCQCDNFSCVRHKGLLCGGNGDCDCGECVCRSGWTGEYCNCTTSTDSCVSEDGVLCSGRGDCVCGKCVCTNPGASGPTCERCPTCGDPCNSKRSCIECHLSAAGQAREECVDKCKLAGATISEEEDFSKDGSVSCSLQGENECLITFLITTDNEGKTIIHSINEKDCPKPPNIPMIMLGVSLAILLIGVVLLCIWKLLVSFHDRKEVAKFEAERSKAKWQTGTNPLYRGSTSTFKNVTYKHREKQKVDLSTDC

[9] = target: human α5β1 integrin (human) (UniProt P08648); assay: FACS on human α5β1-transfected against untransfected 300.19 cells, 0.02 ug/mL
[10] = target: human α5β1 integrin (human) (UniProt P08648); assay: FACS on human α5β1-transfected against untransfected 300.19 cells, 0.2 ug/mL
[11] = target: human α5β1 integrin (human) (UniProt P08648); assay: FACS on human α5β1-transfected 300.19 cells, 0.2 ug/mL
[12] = target: human α5β1 integrin (human) (UniProt P08648); assay: FACS on human α5β1-transfected 300.19 cells, 0.02 ug/mL
[13] = target: β1 chain (integrin β1) (human) (UniProt P05556); assay: FACS on HT29 cells (α5 null, β1 present); Gt anti Mouse alone 2.52
Macaque α5β1 (Macaque) [14] = assay: FACS on macaque T-cells, isotype control; Goat anti Human IgG Fc Cy5 alone 3

Chain of β1 chain (integrin β1) (human) (P05556 21-798): as the sequence (P05556 21-798, chain 2 of 2, further chain) above
Chain of αv integrin chain (P06756 31-1048 limits assumed): as the sequence (P06756 31-1048, chain 1 of 2) above

Substance: 4B4 (antibody)
Binding Geomean [1]: 362 | Geo Mean on Macaque T-cells IgG detection [2]: 141

Substance: L230 (antibody)
Binding Geomean (αv integrin chain): 294 | Geo Mean on Macaque T-cells IgG detection [3]: 3

Substance: Human IgG2 (antibody)
Binding Geomean [8]: 2.84 | Ratio (α5β1 expressing B300.19 cells against B300.19 cells) [5]: 0.8 | X Geo Mean [7]: 12

Substance: MAB2077Z (antibody)
Binding Geomean (αvβ6 integrin): 39.2

Substance: Human IgG2/4 (antibody)
Geo Mean on Macaque T-cells IgG detection (Macaque α5β1 (Macaque) [14]): 3

More lines, now with the values ahead:

Binding Geomean [4]: 10.2
Substance: Mouse IgG2a (antibody)

Ratio (α5β1 expressing B300.19 cells against B300.19 cells) [5]: 0.9 | Geo Mean on Macaque T-cells IgG detection (Macaque α5β1 (Macaque) [6]): 2 | Binding Geomean [4]: 2.55 | X Geo Mean [7]: 14.9
Substance: Mouse IgG1 (antibody)

Binding Geomean [8]: 3.2
Substance: Human IgG4 (antibody)

Ratio (α5β1 expressing B300.19 cells against B300.19 cells) [9]: 2.5 | Ratio (α5β1 expressing B300.19 cells against B300.19 cells) [10]: 6.9 | Ratio (α5β1 expressing B300.19 cells against B300.19 cells) [5]: 9.5 | X Geo Mean [11]: 152 | X Geo Mean [12]: 45.1 | Binding Geomean [13]: 2.69 | X Geo Mean [7]: 194
Substance: mAb 1969 (antibody)
